Molecular target: T1, SHP2PTP (GST tagged SHP2 catalytic domain) (Homo sapiens, UniProt Q06124)
T1 construct: a fixed amount of purified GST-WT SHP2 catalytic domain (0.2 ug) was incubated with variable concentrations; purchased Abcam 42578
T1 sequence (Q06124 247-517 limits assumed): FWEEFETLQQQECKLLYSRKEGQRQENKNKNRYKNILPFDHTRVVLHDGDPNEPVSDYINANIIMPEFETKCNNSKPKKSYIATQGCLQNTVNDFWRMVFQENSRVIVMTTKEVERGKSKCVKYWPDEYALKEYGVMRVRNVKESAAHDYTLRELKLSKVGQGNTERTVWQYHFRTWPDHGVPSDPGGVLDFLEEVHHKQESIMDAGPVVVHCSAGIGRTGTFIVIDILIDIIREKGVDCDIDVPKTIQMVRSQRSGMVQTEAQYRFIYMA
Test: Malachite Green phosphatase assay of SHP2 catalytic domain with phosphotyrosyl peptide substrates
Assay type: biochemical
Conditions: for increase of Km of SHP2-mediated dephosphorylation in the presence of SAP: SAP 1 uM or 10 uM
Experimental: FIG. 4. SAP inhibits SHP2 activity. […] At this time, the cells were harvested, and analyzed by immunoblotting, as indicated. (b) Jurkat T cells, transfected with siRNA for SAP (SAP KD) and non-targeting control (Control), were treated with pervanadate to induce maximal phosphorylation, followed by five serial washes, lysis and diafiltration to remove the drug and to exchange the buffer to a phosphatase-compatible buffer. SHP2^PTP (GST tagged SHP2 catalytic domain) was then added to the cell lysates for one hour, at the indicated concentrations, followed by immunoblotting with anti-phosphotyrosine antibody (4G10). (c) Densitometry values of all the phophotyrosine containing proteins shown at b. All values are relative to the baseline condition (without SHP2^PTP). […] (e-g) Enzymatic activity of SHP2^PTP was measured using a Malachite Green assay, with p60-SRC (e), SLAMF5 Y279 (f), CD3 Y142 (g), CD28 Y172 (h), and CD28 Y190 (i) peptides as substrates. Substrate titrations of SHP2P (dark circles) at baseline (control), or in the presence of SAP 1 uM (white circles) or SAP 10 uM (crossed circles) are shown. Curves are fitted using the Michelis-Menten equation and derived Km values are shown. The data points represent the mean of three measurements. (j) A diagram describing the shielding model. Data are represented as mean±SEM. * or ** represent significant differences between the denoted group and the anti-CD3 treated cells in a, or between SAP deficient cells and control cells in e; * <0.05, ** P<0.01, n=4, unpaired t test.
First, SAP could bind SHP2 and directly block the SHP2 catalytic site, or alternatively, SAP might not bind to SHP2, but rather could bind to its substrates and thereby block the interaction between SHP2 and its enzymatic substrates. […] To test the effect of SAP on SHP2 mediated dephosphorylation events, we measured SHP2-mediated dephosphorylation of p60-SRC Y416 (FIG. 4e), SLAMF5 Y279 (FIG. 4f), and CD3 Y142 (FIG. 4g) phosphotyrosyl peptides by Malachite Green assays. […]
To determine kinetic parameters, a fixed amount of purified GST-WT SHP2 catalytic domain was incubated with variable concentrations of substrates in (GenScript) in PTP assay buffer (Phosphatase assay kit; Upstate 17-313). […] release was quantified by adding Malachite Green (Malachite Green phosphatase detection kit; R&D DY996).
293T cells were transfected with pMSCV-SHP2, pMSCV empty vector, PD1-WT-GFP, PD1-Y223F-GFP or PD1-Y248F-GFP for 48 hours, followed by pervanadate treatment and immunoprecipitation using anti-GFP mAb-Agarose. The anti-GFP mAb-Agarose beads that were used for immunoprecipitation were then used for a pull-down of the SHP2/null transfected cells, and phosphatase activity on the beads was assessed using pNPP (Sigma). […]

B1: SAP: Recombinant human SAP (His tagged), signaling lymphocytic activation molecule-associated protein, purchased from Abcam (protein, UniProt O60880 1-128, looked up)
SH2 domain-containing protein …: MDAVAVYHGKISRETGEKLLLATGLDGSYLLRDSESVPGVYCLCVLYHGYIYTYRVSQTETGSWSAETAPGVHKRYFRKIKNLISAFQKPDQGIVIPLQYPVEKKSSARSTQGTTGIREDPDVCLKAP
modifications: His tag
Vmax of SHP2-mediated dephosphorylation in the presence of SAP (all three phosphotyrosyl peptides (p60-SRC, SLAMF5, CD3)): unaffected
increase of Km of SHP2-mediated dephosphorylation in the presence of SAP (substrate phosphorylated CD3 Y142 peptide): 2-3 fold
increase of Km of SHP2-mediated dephosphorylation in the presence of SAP (substrate phosphorylated SLAMF5 Y279 peptide): 2-3 fold
inhibition of SHP2-mediated dephosphorylation of the tail of CD28 (substrates CD28 Y173 and CD28 Y190 peptides): predominantly inhibited dephosphorylation of CD28 Y173 over CD28 Y190

From patent publication US11110171B2, “PD-1 related cancer therapy” (New York University, priority 2017, dated 2021)
